Columns and labels:
[1] = target: T1, Epitope peptide GGGGNLTQDRAQVEMQGSR; assay: method not stated; Example 2, heading names cov434-AMHR-II cells and the epitope peptide
T1 peptide: GGGGNLTQDRAQVEMQGSR

AMHR-II human receptor = target: T2, AMHR-II human receptor (human, UniProt Q16671 18-573, limits assumed); assay: method not stated; determined on the AMHR-II human receptor; determined on the AMHR-II human receptor (table footnote), apart from the tabulated 2.35 × 10^-7M
T2 sequence (looked up): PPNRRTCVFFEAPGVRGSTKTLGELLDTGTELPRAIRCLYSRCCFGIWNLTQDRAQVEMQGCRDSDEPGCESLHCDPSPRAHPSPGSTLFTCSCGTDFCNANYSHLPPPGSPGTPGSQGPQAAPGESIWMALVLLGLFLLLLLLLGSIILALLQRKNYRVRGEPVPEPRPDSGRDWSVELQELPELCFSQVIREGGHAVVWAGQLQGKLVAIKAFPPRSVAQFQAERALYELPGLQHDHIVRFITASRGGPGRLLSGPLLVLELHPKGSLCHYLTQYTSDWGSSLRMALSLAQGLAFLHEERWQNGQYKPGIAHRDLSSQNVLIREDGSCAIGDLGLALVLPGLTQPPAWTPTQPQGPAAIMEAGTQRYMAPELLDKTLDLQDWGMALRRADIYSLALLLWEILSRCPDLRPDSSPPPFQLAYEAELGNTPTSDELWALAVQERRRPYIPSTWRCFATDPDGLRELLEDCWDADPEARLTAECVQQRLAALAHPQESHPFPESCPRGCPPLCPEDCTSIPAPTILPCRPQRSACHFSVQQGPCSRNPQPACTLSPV

[2] = target: T3, AMHR-II/Fc fusion protein (human, UniProt Q16671 18-149, limits assumed); assay: SPR, BIAcore X100; AMHR-II/Fc immobilised on CM5 chip, antibody injected; 25 C
T3 construct: also called AMHR-II recombinant receptor expressed in the form of fusion protein with a region Fc; recombinant target; not shown: Fc region
Method: The affinity of the antibodies for their antigen, AMHR-II, is determined by the SPR (Surface Plasmon Resonance) technique on BIACore X100 (BIACore, GE Healthcare). The AMHR-II recombinant receptor, expressed in the form of fusion protein with a region Fc, is immobilized by covalent coupling between its amine functions and the carboxyl groups of dextran activated in succinimide esters, present on the surface of the type CM5 sensor chip. The COOH groups of the sensor chip are activated for 7 minutes with EDC/NHS mixture (0.1 M of N-hydroxysuccinimide and 0.1 M of 3-(N,N-dimethylamino)propyl-N-ethylcarbodiimide) at a flow of 10 μl/min then the AMHR-II/Fc fusion protein, diluted to 5 μg/ml in 10 mM sodium acetate buffer, pH 4.0, is injected at […] on track 2 of the sensor chip so as to reach 300 RU. The ester groups that have not reacted with the amines of the fusion protein are deactivated by injection of a solution of ethanolamine-HCl 1M, pH 8.5 for 7 min at a flow of 10 μl:min. Track 1, serving as negative control, was activated and deactivated like track 2.
All the measurements are carried out at 25° C. The antibodies to be analysed are diluted in HBS-EP running buffer (BIACore, GE Healthcare) at concentrations from 6.25 to 3333 nM and injected on the sensor chip for 2 min at a flow of 30 μl/min. The dissociation step is monitored for 10 min and then the surface is regenerated by injection of 10 mM glycine buffer, pH 1.5 for 30 s at 10 μl/min.
The sensorgrams obtained are analysed using the 1:2 kinetic model of the BIAevaluation 3.1 software.

[3] = target: T3, AMHR-II/Fc fusion protein; assay: direct phage ELISA, ratio of specific binding; 3.00E+09 phages per well as printed (second row)
[4] = target: T3, AMHR-II/Fc fusion protein; assay: direct phage ELISA, target coated at 500 ng/well; 3.00E+09 phages per well as printed
[5] = target: T3, AMHR-II/Fc fusion protein; assay: direct phage ELISA, target coated at 500 ng/well; 3.00E+09 phages per well as printed (second row)
[6] = target: T3, AMHR-II/Fc fusion protein; assay: direct phage ELISA, target coated at 500 ng/well; 3.00E+10 phages per well as printed (second row)
[7] = target: T3, AMHR-II/Fc fusion protein; assay: direct phage ELISA, ratio of specific binding; 3.00E+09 phages per well as printed (third row)
[8] = target: T3, AMHR-II/Fc fusion protein; assay: direct phage ELISA, ratio of specific binding; 3.00E+09 phages per well as printed
[9] = target: T3, AMHR-II/Fc fusion protein; assay: direct phage ELISA, target coated at 500 ng/well; 3.00E+09 phages per well as printed (third row)
[10] = target: T3, AMHR-II/Fc fusion protein; assay: direct phage ELISA, target coated at 500 ng/well; 3.00E+10 phages per well as printed
[11] = target: T3, AMHR-II/Fc fusion protein; assay: direct phage ELISA, ratio of specific binding; 3.00E+10 phages per well as printed (second row)
[12] = target: T3, AMHR-II/Fc fusion protein; assay: direct phage ELISA, ratio of specific binding; 3.00E+10 phages per well as printed

B1: chimeric 12G4 monoclonal antibody (antibody, V domains shown)
VH: QVQLQQSGPELVKPGASVRMSCKASGYTFTSYHIHWVKQRPGQGLEWIGWIYPGDDSTKYNEKFKGKTTLTADKSSSTAYMLLSSLTSEDSAIYFCTRGDRFAYWGQGTLVTVSA
VL: QIVLTQSPAIMSASLGEGITLTCSASSSVRYIHWYQQKSGTSPKLLIYSTSNLASGVPSRFSGSGSGTFHSLTISSVEAEDAADYYCLQWSSYPWTFGGGTKLEIKR
notes: Variable regions without leader joined to the human constant regions; also called 12G4-Chimeric; unmutated chimeric 12G4 antibody
[1]
  Kd: 235 nM
  koff: 0.00153 s⁻¹
  kon: 6490 M⁻¹ s⁻¹
AMHR-II human receptor
  Kd: ~10 nM
[2]
  Kd: 212 nM
  koff: 0.00074 s⁻¹
  kon: 3500 M⁻¹ s⁻¹

B2: mVH-VL, murine antibody mLFB112 expressed as scFv on phage (scFv, part only; not given: scFv linker, part only)
scFv, part: QVQLQQSGPELVKPGASVRMSCKASGYTFTSYHIHWVKQRPGQGLEWIGWIYPGDDSTKYNEKFKGKTTLTADKSSSTAYMLLSSLTSEDSAIYFCTRGDRFAYWGQGTLVTVSAQIVLTQSPAIMSASLGEGITLTCSASSSVRYIHWYQQKSGTSPKLLIYSTSNLASGVPSRFSGSGSGTFHSLTISSVEAEDAADYYCLQWSSYPWTFGGGTKLEIK
[3]
  Ratio mVH-VL/huVH-VL: 5.2
[4]
  OD 450 nm, +covering: 1.57 OD
  OD 450 nm, Diff (specific binding): 1.51 OD
[5]
  OD 450 nm, +covering: 0.946 OD
  OD 450 nm, Diff (specific binding): 0.887 OD
[6]
  OD 450 nm, +covering: 2.19 OD
  OD 450 nm, Diff (specific binding): 2.11 OD
[7]
  Ratio mVH-VL/huVH-VL: 5.2
[8]
  Ratio mVH-VL/huVH-VL: 4.7
[9]
  OD 450 nm, +covering: 0.495 OD
  OD 450 nm, Diff (specific binding): 0.446 OD
[10]
  OD 450 nm, +covering: 2.81 OD
  OD 450 nm, Diff (specific binding): 2.65 OD
[11]
  Ratio mVH-VL/huVH-VL: 3.6
[12]
  Ratio mVH-VL/huVH-VL: 2.4

From patent US20130136743A1 (LABORATOIRE FRANCAIS DU FRACTIONNEMENT ET DES …, published 2013)
